For assay [1], the target named is T1, high affinity (HA) α4β7 integrin on activated cells (Mn2+-treated TK-1 cells or primary mouse leukocytes) (mouse, UniProt Q00651 41-1039; P26011 20-806).
T1 construct: whole, on cells; Same polypeptides as m4; also called LPAM-1
The experiment in a line: flow cytometry on Mn2+-treated TK-1 cells. The method, then:
(§1) In-vitro binding—TK-1 cells were activated according to Y. Yang et al.³⁰. Briefly, cells were washed with PBS and resuspended in resuspension buffer (HBSS with 10 mM HEPES buffer, 2 mM CaCl₂ and 2 mM MgCl₂). Non-activated cells were kept on ice while activated cells were resuspended in pre-incubation buffer (HBSS with 10 mM HEPES buffer and 2 mM EDTA), incubated at RT for 30 minutes with gentle rotation, washed with PBS and finally resuspended in activation buffer (HBSS with 10 mM HEPES buffer, 2 mM CaCl₂ and 2 mM MnCl₂). MAdCAM-D1D2-Fc and the controls were added to both activated and non-activated cells and incubated for 30 minutes at 4° C. Cells were subsequently washed and stained with either anti-human IgG or anti-mouse IgG conjugated to AlexaFluor647 (Biolegend, USA). Binding of D1D2-Fc to TK-1 cells was assessed by analyzing the fluorescence of the cells by flow cytometry. Binding of D1D2-targeted Cy5-LNPs was detected by flow cytometry directly using the Cy5 fluorescence (without addition of another antibody). In the binding experiments with Cy5-LNPs, the HBSS in the activation buffer was replaced with RPMI+10% FBS due to a high background using LNPs.
(§2) Following purification, the functionality of the generated D1D2-Fc and mD1D2-Fc was tested in-vitro by assessing their binding to TK-1 cells using flow cytometry. […]
On the technique in general: A flow cytometer gives signals particle by particle.

The target of assay [2] is T2, low affinity (LA) α4β7 integrin on non-activated cells (Ca2+ control, no Mn2+) (mouse, UniProt Q00651 41-1039; P26011 20-806).
T2 construct: whole, on cells
T2 sequence (Q00651 41-1039, chain 1 of 2): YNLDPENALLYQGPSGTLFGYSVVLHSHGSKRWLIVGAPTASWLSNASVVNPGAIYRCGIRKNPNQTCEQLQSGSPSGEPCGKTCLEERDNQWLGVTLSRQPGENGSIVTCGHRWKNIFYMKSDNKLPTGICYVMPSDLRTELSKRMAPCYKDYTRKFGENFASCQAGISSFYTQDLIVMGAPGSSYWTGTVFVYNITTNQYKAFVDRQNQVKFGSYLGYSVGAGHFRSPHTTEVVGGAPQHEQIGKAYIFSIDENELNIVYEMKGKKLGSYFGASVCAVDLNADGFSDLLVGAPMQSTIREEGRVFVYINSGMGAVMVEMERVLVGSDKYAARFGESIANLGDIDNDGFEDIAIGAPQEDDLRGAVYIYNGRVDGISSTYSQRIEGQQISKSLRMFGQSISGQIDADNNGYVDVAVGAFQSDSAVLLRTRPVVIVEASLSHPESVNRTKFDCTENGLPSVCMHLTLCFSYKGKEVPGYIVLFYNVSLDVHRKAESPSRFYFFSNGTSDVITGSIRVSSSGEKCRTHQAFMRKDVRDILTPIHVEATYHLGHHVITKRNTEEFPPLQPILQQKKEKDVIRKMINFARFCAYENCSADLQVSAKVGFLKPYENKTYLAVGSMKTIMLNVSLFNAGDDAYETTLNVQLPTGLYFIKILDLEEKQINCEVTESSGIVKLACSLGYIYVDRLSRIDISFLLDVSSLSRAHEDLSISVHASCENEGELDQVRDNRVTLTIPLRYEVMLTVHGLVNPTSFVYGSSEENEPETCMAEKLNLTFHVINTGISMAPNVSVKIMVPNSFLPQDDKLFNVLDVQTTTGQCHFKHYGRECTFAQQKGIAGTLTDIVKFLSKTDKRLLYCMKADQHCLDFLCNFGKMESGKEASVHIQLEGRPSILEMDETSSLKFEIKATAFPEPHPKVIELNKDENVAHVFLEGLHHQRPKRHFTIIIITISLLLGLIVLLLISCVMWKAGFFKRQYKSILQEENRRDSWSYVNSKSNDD
T2 sequence (P26011 20-806, chain 2 of 2): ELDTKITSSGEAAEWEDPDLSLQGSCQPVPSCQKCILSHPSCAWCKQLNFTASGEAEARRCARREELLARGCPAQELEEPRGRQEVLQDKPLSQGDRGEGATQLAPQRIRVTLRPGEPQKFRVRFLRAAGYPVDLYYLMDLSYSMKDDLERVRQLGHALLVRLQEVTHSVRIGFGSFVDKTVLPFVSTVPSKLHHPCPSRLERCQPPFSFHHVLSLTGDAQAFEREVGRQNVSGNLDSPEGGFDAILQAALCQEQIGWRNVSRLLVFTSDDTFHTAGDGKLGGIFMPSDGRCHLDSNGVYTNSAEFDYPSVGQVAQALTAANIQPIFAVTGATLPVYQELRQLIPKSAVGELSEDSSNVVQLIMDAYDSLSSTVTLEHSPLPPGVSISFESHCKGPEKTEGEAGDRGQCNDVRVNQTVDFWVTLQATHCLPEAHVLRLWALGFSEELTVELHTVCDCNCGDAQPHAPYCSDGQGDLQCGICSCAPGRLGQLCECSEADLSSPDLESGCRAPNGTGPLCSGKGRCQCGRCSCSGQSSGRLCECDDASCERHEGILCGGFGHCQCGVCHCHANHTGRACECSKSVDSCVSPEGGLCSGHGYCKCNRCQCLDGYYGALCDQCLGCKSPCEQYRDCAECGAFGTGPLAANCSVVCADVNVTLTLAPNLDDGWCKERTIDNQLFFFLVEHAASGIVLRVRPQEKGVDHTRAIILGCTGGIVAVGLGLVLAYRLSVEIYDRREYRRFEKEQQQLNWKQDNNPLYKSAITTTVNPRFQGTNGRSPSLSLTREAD
The experiment in a line: flow cytometry on TK-1 cells without Mn2+ (Ca2+ control). As to the method: as §1, §2

Here are results for one molecule from patent US20230357353A1 (RAMOT AT TEL AVIV UNIVERSITY, published 2023).

T1 sequence (Q00651 41-1039, chain 1 of 2): as the sequence (Q00651 41-1039, chain 1 of 2) above
T1 sequence (P26011 20-806, chain 2 of 2): as the sequence (P26011 20-806, chain 2 of 2) above

B1: MAdCAM-mD1D2-Fc fusion protein (D62A mutated control) (Fc fusion)
chain: DYKDDDDKLAAAQSFQVNPPESEVAVAMGTSLQITCSMSCDEGVARVHWRGLATSLGSVQTLPGSSILSVRGMLSDTGTPVCVGSCGSRSFQHSVKILVYAFPDQLVVSPEFLVPGQDQVVSCTAHNIWPADPNSLSFALLLGEQRLEGAQALEPEQEEEIQEAEGTPLFRMTQRWRLPSLGTPAPPALHCQVTMQLPKLVLTHRKEIPVLGGGGSGGGGSGGGGSVPRECNPCGCTGSEVSSVFIFPPKTKDVLTITLTPKVTCVVVDISQNDPEVRFSWFIDDVEVHTAQTHAPEKQSNSTLRSVSELPIVHRDWLNGKTFKCKVNSGAFPAPIEKSISKPEGTPRGPQVYTMAPPKEEMTQSQVSITCMVKGFYPPDIYTEWKMNGQPQENYKNTPPTMDTDGSYFLYSKLNVKKETWQQGNTFTCSVLHEGLHNHHTEKSLSHSPGKGSGHHHHHH
notes: The signal peptide, FLAG-tag and 6x HIS-tag are as in D1D2-Fc; also called mD1D2 control; targeting protein of the mD1D2-targeted LNPs (mD1D2-LNPs)
For B1, the binding result in assay [1] and in assay [2] was “no binding” each time.
